± gives the uncertainty stated by the source.
Experiment: amyloid nucleation score (Sup35N fusion, yeast selection) (log enrichment); library NNK2; higher = more nucleation; inactive = no reads after selection
How it was run: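 Libraries of peptides of 20 random codons fused to Sup35N were expressed in psi-negative yeast and induced 24 hours with 100 μM copper sulfate. Selection was 7 days at 30°C on medium lacking adenine and uracil, and plasmid inserts were Illumina-sequenced before and after selection. Nucleation score is the DiMSum log enrichment of output over input reads, centred on the mode score of non-aggregating sequences, and sequences with under 100 input reads were left out.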

Substance | amyloid nucleation score
CFVKRLHVLWLSKTVCRAVL | 0.113 ± 0.21
LFLTDTLMMYINSECR | 1.75 ± 0.087
CICLIMRTKTCELGSLLG | 5.781 ± 0.046
ENLPGWLLVKMVQYY | 0.276 ± 0.54
RQMPVGGCVFMTKVCKT | 0.232 ± 0.64
MFYLS | -0.476 ± 0.37
QVVDGWWGNYFIV | -1.92 ± 0.78
FDLVGDGYCNYALEYTRLNM | -1.15 ± 1.1
MKFQPETVCYFRGYWLDRQY | -0.251 ± 0.39
VNFYSALSSDNTRMYWLLTV | -0.898 ± 1.1
ARVRVYRWWTLATTWGRVGF | 2.85 ± 0.14
EGSLPLGRSSCPGTLHDGMI | 0.922 ± 0.34
YFKMSFCSFWL | 1.91 ± 0.091
WFGFGESAHLYRLREEDFHD | -0.206 ± 0.79
HNCFFITRCSKVLRAYFSTL | -1.4 ± 1.1
KTAFKSNTEITSPLVTVLAL | 0.555 ± 0.33
DEGKA | -0.507 ± 0.42
RGFVLETLWSMTIVVQKFNL | inactive
FFTCFTYCDCHNPVMI | 3.28 ± 0.12
TGLDIGLGWLYMYRGATLAI | 0.542 ± 0.35
NVFKGPVLHGFRDRISWVKD | inactive
QGCLRQVQMRDRATRIGEVI | 0.47 ± 0.25
LIFQVMFVDCIEFRCWNMAL | 0.959 ± 0.6
TLTYYPFMRYAFTVSLWFLF | -1.83 ± 1.1
TMCWPMILK | -0.072 ± 0.27

Substance | amyloid nucleation score
WHGRWSTNRRRPPNKMCRLV | 1.06 ± 0.28
LCDMI | 0.544 ± 0.29
FSTQGTPSSSLDWLNRLTVW | 0.102 ± 0.36
EDFRGLIKL | inactive
VDNNVGSWPLWP | -0.08 ± 1
FSVIICVTALVWACCCTRIV | 1.09 ± 0.36
CTVTK | 1.45 ± 0.11
MLRPAAHDGVKASYVKFKI | 0.489 ± 0.45
LWCSDCISTEIIHNQRFA | -0.152 ± 1
TSRDSRAL | -0.742 ± 1.1
SKCWESREQGYMYMEWGFEG | 0.219 ± 1
RKPLLHLVRFRWNNPLDNE | -1.03 ± 0.76
HIHSKQIRVFNFSNFLEQIY | 6.113 ± 0.033
FGVNS | -0.021 ± 0.63
ALFVYYDIQVVGITY | -1.1 ± 0.4
EGFKYWIDKGSSGTVCVKST | 0.249 ± 0.65
DCQMRDNASVNIIVRFQYVY | 5.08 ± 0.082
RCYGVRTHGNLKQIMTKMTE | 0.602 ± 0.24
LRVGSRKVRVWSLVSFCLVV | -0.271 ± 0.42
RLSLNFDVRLC | 1.21 ± 0.61
SHCCFLG | 0.118 ± 0.51
NSGYIGLGLSF | -0.224 ± 0.65
GLLPVGSVGVRVALVVMRVQ | 1.35 ± 0.36
KVSKTCY | 0.497 ± 0.24
FFTIVMRRSILFCIFLVIDA | -1.6 ± 0.49

Substance | amyloid nucleation score
YVDVGC | 0.513 ± 0.52
CVAVNLCVAALV | -0.049 ± 0.76
SPAWRNGDPRKKATPTHTGI | 0.004 ± 1.1
GIWWQHNGFEYDFGNLSC | -0.165 ± 0.35
YYKQWG | inactive
CKVHVQVNTESYTGIVMTYY | 4.65 ± 0.039
DQSFLF | -0.039 ± 0.39
YVFLEGFNRVFDHVACIGLK | -0.721 ± 0.35
NFFNFSDMYRYGNKIWGGAN | 0.208 ± 1.1
SVSDLLLIYVIESSCSHGFK | 4.72 ± 0.072
FIRNYWSVYGRWSANIFDDL | 0.48 ± 0.45
DPFSHGEASEWAHLIVSTCT | 0.408 ± 0.22
KTTSISLAVEGYLVGISLIP | 7.26 ± 0.078
ICKGRCVASGWV | 1.61 ± 0.14
YVKSRHTNYDGRSTLL | 3.12 ± 0.13
SFAIIS | 0.077 ± 0.65
YYQRLRVHLYADIELYATLC | 0.266 ± 0.6
RSGYGWTVLFERLSKHCEFK | -0.301 ± 0.39
NLGTWD | -0.156 ± 0.28
FCYQMSEVWIWCKFIFSI | -1 ± 1.1
IDNYFIRVKTFSDFMSSLDG | inactive
RSMSRRGFLCLHR | 0.948 ± 0.67
GEIAPGWEQLWDNEWGSDWA | -0.051 ± 0.39
ERIFGFI | -1.45 ± 0.55
GVDKKVSSTECIETVSCFIT | inactive

Substance | amyloid nucleation score
LTWICEFGRSFFSWICVMIG | 0.856 ± 0.14
EGRVHTSLLVVCVTHTRKYM | -0.688 ± 0.42
LATLRLWVTCQRIGISRRKG | 7.017 ± 0.037
HKGAARQPRPYMEAVIGPHP | 0.792 ± 0.27
HGAVRSLSGGHIDRELVCD | 0.566 ± 0.74
CSRIHIV | -0.255 ± 1.1
STARRRCYFGFGLGQSSAAI | -0.891 ± 1.1
TGENI | inactive
RLRYM | -0.631 ± 0.76
EGNNCW | 0.22 ± 0.23
QWVVLVD | -0.016 ± 0.65
VSVGNPFSVNRQVYCPTTEW | -1.38 ± 0.62
LLCNGVSGGQTNQDIFHMPC | inactive
FYVSAFMHIKVLYPVNNRLG | 3.62 ± 0.11
DDWEVRN | 0.231 ± 0.31
LMIGSEDAMNYGCSCNPYLF | -1.04 ± 0.33
LYFRYWVMDSQASNFHRCRG | -0.14 ± 1
HGVMKISTCYFGGKESYYVE | -0.206 ± 0.76
GCRGHFMYRTW | inactive
SISVKGLSGRLTVRYLLILV | -0.669 ± 1
ANSPVGHEPGFECKSGFRET | 0.168 ± 0.57
PHHWTQWSVKMSGFRSLLRR | 1.19 ± 0.13
VFTSGSRCHPWLE | 1.45 ± 0.27
SDGVNIMK | 2.83 ± 0.18
VSHMNCLDMICHLWISQLVL | 1.65 ± 0.098

Substance | amyloid nucleation score
VLSVISLFGHILVMFLERKV | -0.13 ± 0.76
ARECNY | 3.78 ± 0.063
FRILFGFRCNLRGSSQVLIG | inactive
LCFKLMNSKSWMRIQTAWTL | 0.384 ± 0.34
WYSYRL | -0.11 ± 0.46
LQVLSFSLWFMVRCMKLLPT | -0.286 ± 0.65
YRFKLFTHRYILFNWVFLLL | inactive
CSWGCNDFRSCLALVMDCHA | 1.02 ± 0.61
PVNCGWQGEDRTVEILHAHG | 1.13 ± 0.28
FSSSWKGRFVNNSRVVGKSR | -0.367 ± 0.43
VYYSGALFQNVLYLLSFMVV | -0.501 ± 1.1
LFPLHFCNEHIMRLIKKLTG | 0.579 ± 0.8
RINIFLRITFHNLLQLNRSG | 6.04 ± 0.081
VIQIVNFSDNIMTCLHNHLQ | 5.64 ± 0.086
VGVWATGRGCSISEYNGKNR | 1.09 ± 0.12
FTRTWLCIHAEYARCLGTCV | 5.05 ± 0.053
LKGSRNRATSDKGWKEG | 0.306 ± 0.8
APVMYVT | 0.057 ± 0.48
ISHMYCSFGSLVLFSGIRFR | -0.774 ± 0.53
FCPMVLAFTSRGIATKNCGV | 0.566 ± 0.74
FYKGYACHITAQYNLCVDNA | -0.146 ± 1
IFYGRYGAILWGAKCLY | 1.96 ± 0.21
KLYMCVIFYCLKGRLLVTYM | -1.18 ± 0.63
VLSEI | 0.607 ± 0.25
LSSPDVPNIHAALRTRTGWA | -0.328 ± 0.27

Substance | amyloid nucleation score
TFINAGFRLHFRFYRFVFSK | -0.717 ± 1
FGADNGSPRSE | -0.354 ± 0.76
ACFHGFPIYGCLLANAMCGR | 1.33 ± 0.67
IDYRPDCQRPVLVYLNKGCM | -0.389 ± 0.24
FGWAL | inactive
YWVFI | -0.115 ± 0.56
SLFYVTLAPTSWICGTARC | 1.43 ± 0.41
YSERSTEGQ | 0.698 ± 0.26
VGLNYNAMAHTSRGSF | 0.236 ± 0.38
TNMPRWECSHGGRECGKGPA | 1.19 ± 0.18
GSSTSGVCTGVRERAVDCGV | 0.007 ± 0.76
YWWCRPILILCSNLDDVWSL | 7.6 ± 0.079
IRVTCLLGL | -0.055 ± 0.2
LLSSWNKSYKIRTIGIIGNV | -0.848 ± 0.25
SNYSPGFLCWALESSTNM | -0.99 ± 1.1
FFSMRVIIMFERNSSVFAVQ | 4.1 ± 0.11
IITIIKF | 7.164 ± 0.03
SRVTYMRATDSMTTVVFWGV | 5.31 ± 0.064
YCYEPLTC | 0.508 ± 0.49
CEDSCSSCNGILLDVREERS | 1.89 ± 0.076
ELMDNFLVSFVGKHRVTRSS | inactive
RKLIFVMTRRLGRSSRTVLM | 0.112 ± 1.1
CLKGKYESYNADVNAHYSLA | 0.13 ± 0.45
VFCSSRFCIEECGC | -0.453 ± 0.64
NKRMRVRVEGRLINV | 0.089 ± 0.42

Substance | amyloid nucleation score
LLGVFTETKGNP | 2.53 ± 0.11
QSLVIN | 4.58 ± 0.05
GVLNAVHCQVYWL | 7.869 ± 0.035
IAHRVITMP | -0.277 ± 1.1
NLNFKDGPGDLTCMRDRAFS | -0.508 ± 0.63
LVDILLMMYWMWQ | 0.373 ± 0.45
NSFVCMLPGVFVKCRCSNAD | 4.832 ± 0.044
VVVRGVQAGCGKPPVSRLRI | 0.838 ± 0.23
LMNGVGLFNQMGWVVERYLE | -0.357 ± 0.4
NIRFTSLFRLCYFSCDSVSN | 5.301 ± 0.035
ISSSIEHNRCGVEINVICWS | 7.312 ± 0.051
KNNIWVIYPFVNG | 6.434 ± 0.064
AAKDSAWFHAIWVKKVRREV | 1.01 ± 0.68
DNLNRAKFDLELVESGFWVV | inactive
QIVAFY | inactive
SYKGALLSEQIL | 0.114 ± 0.4
FSRYGRMRFLHCSTFSLMPI | -0.07 ± 0.76
LALRRDLFRVVLSNKTTSTR | 1.07 ± 0.28
FCALWVQFRYRE | 3.89 ± 0.1
LFSVVLVGGARRSYLRGGPG | 0.611 ± 0.81
WWKQWRYTGYLLLSHLSNRS | -0.087 ± 0.42
FLCTNGGPLALSNGWVTSGE | 0.274 ± 0.62
LSMQKCSLIIISRCGRSRNM | 3.77 ± 0.057
